# Measurements from PMC4182837, “BosR Functions as a Repressor of the ospAB Operon in Borrelia burgdorferi”.
# B1: IRs probe (ospC operator) (dsDNA)
# DNA 1: CAATATTTTTCAAATTCTTCAATATTTATTCAAGATATTGAAGAATTTGAAAAAATTATTTTTTCAAATA
# DNA 2: TATTTGAAAAAATAATTTTTTCAAATTCTTCAATATCTTGAATAAATATTGAAGAATTTGAAAAATATTG
# B2: cisII probe (dsDNA)
# DNA 1: TGTTATTTGTTAATCTTATAATATAATTATACTTGTATTAAGTTATATTAATATAAAAGGAGAATATATT
# DNA 2: AATATATTCTCCTTTTATATTAATATAACTTAATACAAGTATAATTATATTATAAGATTAACAAATAACA
# B3: cisI probe (dsDNA)
# DNA 1: TAATTAGAACCAAACTTAATTAAAACCAAACTTAATTGAAGTTATTATCATTTTATTTTTTTTCAATTTT
# DNA 2: AAAATTGAAAAAAAATAAAATGATAATAACTTCAATTAAGTTTGGTTTTAATTAAGTTTGGTTCTAATTA
# Target: BosR (Borrelia burgdorferi B31, UniProt O51592 1-176)
# Assay: EMSA; 400 nM BosR, 1 nM probe, 50 ug/ml salmon sperm DNA
# Details: protein: recombinant; tags: C-terminal His6 (pET-23a); chain copies: 2; label: 5' digoxigenin on one strand
row,Binder,binding result
1,B1,no binding
2,B2,binds
3,B3,binds
